Reference: patent US20110098212A1

Columns and labels:
Assay in all cases: cell-based or functional assay
[1] = molecular target: chemokine receptor CCR2 (human) (UniProt P41597)
[2] = molecular target: chemokine receptor CCR4 (human) (UniProt P51679)
[3] = molecular target: chemokine receptor CCR6 (human) (UniProt P51684)
[4] = molecular target: chemokine receptor CCR8 (human) (UniProt P51685)
[5] = molecular target: human chemokine receptor CCR5 (human) (UniProt P51681)

Substance: CCL2/MCP-1 (from UniProt P13500 24-99) (ligand)
- calcium mobilisation, share of THP-1 cells responding [1]: > 95%

Substance: CCL17/TARC (from UniProt Q92583 24-94) (ligand)
- EC50, calcium mobilisation in CCR4-CHO cells [2]: 0.24 nM
- chemotaxis of HUT78 cells, concentration of maximal efficacy [2]: 1 nM

Substance: CCL20/MIP-3alpha (from UniProt P78556 27-96) (ligand)
- EC50, calcium mobilisation in CCR6-CHO cells [3]: 1.27 nM

Substance: GS-U83A (from UniProt P52460 5-97) (ligand)
- blocking of CCL1 (1 nM) induced chemotaxis of HUT78 cells by 100 nM pre-treatment [4]: 10%
- reduction of HIV-1 JRCSF infection of CEM-NKR-CCR5-luc cells at 1 uM [5]: 93%

Substance: GSRIEGR-U83A (from UniProt P52460 5-97) (ligand)
- blocking of CCL22 (10 nM) induced chemotaxis of HUT78 cells by 100 nM pre-treatment [2]: 25%
